Holding throughout (assay): pull-down
Experiment [1] addresses T1, GST-Rb pocket (aa 379-792) (human, UniProt P06400 379-792).
T1 sequence (looked up): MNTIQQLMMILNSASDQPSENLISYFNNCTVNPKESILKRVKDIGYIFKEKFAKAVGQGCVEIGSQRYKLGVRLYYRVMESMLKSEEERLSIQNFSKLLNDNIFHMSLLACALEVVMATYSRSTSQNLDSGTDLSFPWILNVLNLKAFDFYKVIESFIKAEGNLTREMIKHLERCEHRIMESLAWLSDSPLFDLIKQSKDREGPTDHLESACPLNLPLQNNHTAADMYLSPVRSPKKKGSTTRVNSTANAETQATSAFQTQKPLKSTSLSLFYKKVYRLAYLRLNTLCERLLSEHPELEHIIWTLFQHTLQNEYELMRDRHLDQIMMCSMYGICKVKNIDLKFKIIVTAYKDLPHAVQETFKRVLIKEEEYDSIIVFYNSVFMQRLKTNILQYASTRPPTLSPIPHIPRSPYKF

Experiment [2] deals with T1, GST-Rb pocket (aa 379-792). The source holds these as a separate data set.
In experiment [3] the target is T2, GST-Rb∆N (aa 379-928) (human, UniProt P06400 379-928).
T2 sequence (looked up): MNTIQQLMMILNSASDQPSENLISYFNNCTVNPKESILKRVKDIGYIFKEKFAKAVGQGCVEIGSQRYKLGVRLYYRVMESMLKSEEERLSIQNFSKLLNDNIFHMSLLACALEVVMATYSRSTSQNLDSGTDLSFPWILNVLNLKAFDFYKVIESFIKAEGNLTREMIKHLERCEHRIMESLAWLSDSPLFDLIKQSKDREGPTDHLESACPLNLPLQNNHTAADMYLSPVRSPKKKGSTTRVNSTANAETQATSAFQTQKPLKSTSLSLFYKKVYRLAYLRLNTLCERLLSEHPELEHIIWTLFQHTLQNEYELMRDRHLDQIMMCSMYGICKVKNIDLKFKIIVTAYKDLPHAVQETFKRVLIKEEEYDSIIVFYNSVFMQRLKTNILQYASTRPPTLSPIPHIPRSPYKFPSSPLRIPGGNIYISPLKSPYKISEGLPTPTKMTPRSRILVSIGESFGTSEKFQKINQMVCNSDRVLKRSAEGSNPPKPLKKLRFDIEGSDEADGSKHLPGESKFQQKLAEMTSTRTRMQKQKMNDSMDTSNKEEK

Read-outs that look alike come from different tables or passages of the source.

As to NRLTEELGCDEIIDRE (peptide, UniProt Q9Y6B2 172-187, looked up) [EID-1 LxCxE peptide (aa 172-187, LxCxE)], the binding result in experiment [1] is given as “binds”.

B1: Rb 40-355 ∆Ex5 (domain or fragment, human, UniProt P06400 40-355, looked up)
chain: EDLPLVRLEFEETEEPDFTALCQKLKIPDHVRERAWLTWEKVSSVDGVLGGYIQKKKELWGICIFIAAVDLDEMSFTFTELQKNIEISVHKFFNLLKEIDTSTKVDNAMSRLLKKYDVLFALFSKLERSTEINSALVLKVSWITFLLAKGEVLQMEDDLVISFQLMLCVLDYFIKLSPPMLLKEPYKTAVIPINGSPRTPRRGQNRSARIAKQLENDTRIIEVLCKEHECNIDEVKNVYFKNFIPFMNSLGLVTSNGLPEVENLSKRYEEIYLKNKDLDARLFLDHDKTLQTDSIDSFETQR
B1: the binding result in experiment [2] is recorded as “binds”.

B2: RbN (aa 40-355), Rb N-terminal domain (domain or fragment, human, UniProt P06400 40-355, looked up)
chain: EDLPLVRLEFEETEEPDFTALCQKLKIPDHVRERAWLTWEKVSSVDGVLGGYIQKKKELWGICIFIAAVDLDEMSFTFTELQKNIEISVHKFFNLLKEIDTSTKVDNAMSRLLKKYDVLFALFSKLERTCELIYLTQPSSSISTEINSALVLKVSWITFLLAKGEVLQMEDDLVISFQLMLCVLDYFIKLSPPMLLKEPYKTAVIPINGSPRTPRRGQNRSARIAKQLENDTRIIEVLCKEHECNIDEVKNVYFKNFIPFMNSLGLVTSNGLPEVENLSKRYEEIYLKNKDLDARLFLDHDKTLQTDSIDSFETQR
As to B2, the binding result in experiment [2] and in experiment [3] was “binds” throughout.
